Source: patent US20230265151A1, “GIP/GLP1 CO-AGONIST COMPOUNDS” (priority 2020, published 2023)
Changes are numbered by the printed parent chain.

B1: Y-Aib-EGT-αMeF(2F)-TSD-ChA-SI-αMeL-LD-Orn-K((2-[2-(2-Amino-ethoxy)-ethoxy]-acetyl)2-(γ-Glu)-CO-(CH2)12-CO2H)AQ-Aib-EFI-(D-Glu)-αMeY-LIEGGK((2-[2-(2-Amino-ethoxy … (peptide)
peptide: YXEGTXTSDXSIXLDXKAQXEFIXXLIEGGKSSGAPPPS
modifications: Aib2, αMeF(2F)6, ChA10, αMeL13, Orn16, Aib20, D-Glu24, αMeY25; acylated K17, K31 (groups as in name); C-terminal amide
B2: Y-Aib-EGT-αMeF(2F)-TSD-4Pal-SI-αMeL-LD-Orn-K((2-[2-(2-Amino-ethoxy)-ethoxy]-acetyl)2-(γ-Glu)-CO-(CH2)12-CO2H)AQ-Aib-E-αMeF(2F)-I-(D-Glu)-αMeY-LIEGGK((2-[2-(2-Am … (peptide)
peptide: B1 peptide with F22X
modifications: Aib2, αMeF(2F)6, 4Pal10, αMeL13, Orn16, Aib20, αMeF(2F)22, D-Glu24, αMeY25; acylated K17, K31 (groups as in name); C-terminal amide
B3: Y-Aib-EGT-αMeF(2F)-TSD-αMeF(2F)-SI-αMeL-LD-Orn-K((2-[2-(2-Amino-ethoxy)-ethoxy]-acetyl)2-(γ-Glu)-CO-(CH2)12-CO2H)AQ-Aib-EFI-(D-Glu)-αMeY-LIEGGK((2-[2-(2-Amino-e … (peptide)
peptide: B1 peptide
modifications: Aib2, αMeF(2F)6, αMeF(2F)10, αMeL13, Orn16, Aib20, D-Glu24, αMeY25; acylated K17, K31 (groups as in name); C-terminal amide
B4: Y-Aib-EGT-αMeF(2F)-TSD-4Pal-Aib-I-αMeL-LD-Orn-K((2-[2-(2-Amino-ethoxy)-ethoxy]-acetyl)2-(γ-Glu)-CO-(CH2)12-CO2H)AQ-Aib-EFI-(D-Glu)-αMeY-LIEGGK((2-[2-(2-Amino-et … (peptide)
peptide: B1 peptide with S11X
modifications: Aib2, αMeF(2F)6, 4Pal10, Aib11, αMeL13, Orn16, Aib20, D-Glu24, αMeY25; acylated K17, K31 (groups as in name); C-terminal amide
B5: Y-Aib-EGT-αMeF(2F)-TSD-4Pal-SI-αMeL-LD-Orn-K((2-[2-(2-Amino-ethoxy)-ethoxy]-acetyl)2-(γ-Glu)-CO-(CH2)12-CO2H)AQ-Aib-EFI-(D-Glu)-αMeY-LI-Orn-GGK((2-[2-(2-Amino-e … (peptide)
peptide: B1 peptide with E28X
modifications: Aib2, αMeF(2F)6, 4Pal10, αMeL13, Orn16, Aib20, D-Glu24, αMeY25, Orn28; acylated K17, K31 (groups as in name); C-terminal amide
B6: Y-Aib-EGT-αMeF(2F)-TSD-hTyr-SI-αMeL-LD-Orn-K((2-[2-(2-Amino-ethoxy)-ethoxy]-acetyl)2-(γ-Glu)-CO-(CH2)12-CO2H)AQ-Aib-EFI-(D-Glu)-αMeY-LIEGGK((2-[2-(2-Amino-ethox … (peptide)
peptide: B1 peptide
modifications: Aib2, αMeF(2F)6, hTyr10, αMeL13, Orn16, Aib20, D-Glu24, αMeY25; acylated K17, K31 (groups as in name); C-terminal amide
B7: Y-Aib-EGT-αMeF(2F)-TSD-4Pal-SI-αMeL-LD-Orn-K((2-[2-(2-Amino-ethoxy)-ethoxy]-acetyl)2-(γ-Glu)-CO-(CH2)12-CO2H)AQ-Aib-Orn-FI-(D-Glu)-αMeY-LIEGGK((2-[2-(2-Amino-et … (peptide)
peptide: B1 peptide with E21X
modifications: Aib2, αMeF(2F)6, 4Pal10, αMeL13, Orn16, Aib20, Orn21, D-Glu24, αMeY25; acylated K17, K31 (groups as in name); C-terminal amide
B8: Y-Aib-EGT-αMeF(2F)-TSD-4Pal-SI-αMeL-LD-Orn-K((2-[2-(2-Amino-ethoxy)-ethoxy]-acetyl)2-(γ-Glu)-CO-(CH2)12-CO2H)AQ-Aib-E-(2ClPhe)-I-(D-Glu)-αMeY-LIEGGK((2-[2-(2-Am … (peptide)
peptide: B1 peptide with F22X
modifications: Aib2, αMeF(2F)6, 4Pal10, αMeL13, Orn16, Aib20, 2ClPhe22, D-Glu24, αMeY25; acylated K17, K31 (groups as in name); C-terminal amide
B9: Y-Aib-EGT-αMeF(2F)-TSD-4Pal-SI-αMeL-LD-Orn-K((2-[2-(2-Amino-ethoxy)-ethoxy]-acetyl)2-(γ-Glu)-CO-(CH2)12-CO2H)AQ-Aib-E-(2FPhe)-I-(D-Glu)-αMeY-LIEGGK((2-[2-(2-Ami … (peptide)
peptide: B1 peptide with F22X
modifications: Aib2, αMeF(2F)6, 4Pal10, αMeL13, Orn16, Aib20, 2FPhe22, D-Glu24, αMeY25; acylated K17, K31 (groups as in name); C-terminal amide
B10: Y-Aib-EGT-αMeF(2F)-TSD-4Pal-SI-αMeL-LD-Orn-K((2-[2-(2-Amino-ethoxy)-ethoxy]-acetyl)2-(γ-Glu)-CO-(CH2)12-CO2H)AQ-Aib-E-1Nal-I-(D-Glu)-αMeY-LIEGGK((2-[2-(2-Amino- … (peptide)
peptide: B1 peptide with F22X
modifications: Aib2, αMeF(2F)6, 4Pal10, αMeL13, Orn16, Aib20, 1Nal22, D-Glu24, αMeY25; acylated K17, K31 (groups as in name); C-terminal amide
B11: Y-Aib-EGT-αMeF(2F)-TSD-4Pal-SI-αMeL-LD-Orn-K((2-[2-(2-Amino-ethoxy)-ethoxy]-acetyl)2-(γ-Glu)-CO-(CH2)12-CO2H)GQ-Aib-EFI-(D-Glu)-αMeY-LIEGGK((2-[2-(2-Amino-ethox … (peptide)
peptide: B1 peptide with A18G
modifications: Aib2, αMeF(2F)6, 4Pal10, αMeL13, Orn16, Aib20, D-Glu24, αMeY25; acylated K17, K31 (groups as in name); C-terminal amide
B12: Y-Aib-EGT-αMeF(2F)-TSD-OMeY-SI-αMeL-LD-Orn-K((2-[2-(2-Amino-ethoxy)-ethoxy]-acetyl)2-(γ-Glu)-CO-(CH2)12-CO2H)AQ-Aib-EFI-(D-Glu)-αMeY-LIEGGK((2-[2-(2-Amino-ethox … (peptide)
peptide: B1 peptide
modifications: Aib2, αMeF(2F)6, OMeY10, αMeL13, Orn16, Aib20, D-Glu24, αMeY25; acylated K17, K31 (groups as in name); C-terminal amide
B13: Y-Aib-EGT-αMeF(2F)-TSD-4Pal-SI-αMeL-LD-Orn-K((2-[2-(2-Amino-ethoxy)-ethoxy]-acetyl)2-(γ-Glu)-CO-(CH2)12-CO2H)AQ-Aib-E-3FPhe-I-(D-Glu)-αMeY-LIEGGK((2-[2-(2-Amino … (peptide)
peptide: B1 peptide with F22X
modifications: Aib2, αMeF(2F)6, 4Pal10, αMeL13, Orn16, Aib20, 3FPhe22, D-Glu24, αMeY25; acylated K17, K31 (groups as in name); C-terminal amide
B14: Y-Aib-EGT-αMeF(2F)-TSD-4Pal-SI-αMeL-LD-Orn-K((2-[2-(2-Amino-ethoxy)-ethoxy]-acetyl)2-(γ-Glu)-CO-(CH2)12-CO2H)AQ-Aib-GFI-(D-Glu)-αMeY-LIEGGK((2-[2-(2-Amino-ethox … (peptide)
peptide: B1 peptide with E21G
modifications: Aib2, αMeF(2F)6, 4Pal10, αMeL13, Orn16, Aib20, D-Glu24, αMeY25; acylated K17, K31 (groups as in name); C-terminal amide

biological target: T1, human GIP receptor (human, UniProt P48546 22-466); experiment: cell-based or functional assay
T1 sequence (looked up): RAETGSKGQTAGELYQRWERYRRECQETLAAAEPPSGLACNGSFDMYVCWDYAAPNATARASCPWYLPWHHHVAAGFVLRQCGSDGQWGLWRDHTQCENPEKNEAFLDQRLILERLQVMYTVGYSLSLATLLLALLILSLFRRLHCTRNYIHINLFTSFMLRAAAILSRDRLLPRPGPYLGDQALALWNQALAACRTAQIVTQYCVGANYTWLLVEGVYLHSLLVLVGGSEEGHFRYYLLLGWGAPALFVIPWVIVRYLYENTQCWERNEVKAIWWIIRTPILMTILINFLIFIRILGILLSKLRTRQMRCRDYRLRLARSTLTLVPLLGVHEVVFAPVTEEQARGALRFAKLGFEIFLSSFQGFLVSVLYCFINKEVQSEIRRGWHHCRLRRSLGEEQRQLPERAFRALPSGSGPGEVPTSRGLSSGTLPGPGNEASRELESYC

Row | Binder | cAMP EC50 (1.0% HSA) [nM] | cAMP Emax (1.0% HSA) [%]
1 | B1 | 4.97 | 
2 | B2 | 0.591 | 80.3
3 | B3 | 4.84 | 
4 | B4 | 1.49 | 94.2
5 | B5 | 0.306 | 87.5
6 | B6 | 1.52 | 
7 | B7 | 0.35 | 81.3
8 | B8 | 0.744 | 92.8
9 | B9 | 0.771 | 
10 | B10 | 0.787 | 90.6
11 | B11 | 2.36 | 96.9
12 | B12 | 1.12 | 
13 | B13 | 0.986 | 90.5
14 | B14 | 0.515 | 94.2

biological target: human GLP-1 receptor (human, UniProt P43220 24-463); experiment: cell-based or functional assay

Row | Binder | cAMP EC50 (1.0% HSA) [nM] | cAMP Emax (1.0% HSA) [%]
15 | B1 | 58.1 | 
16 | B2 | 209 | 
17 | B3 | 80 | 
18 | B4 | 27.7 | 108
19 | B5 | 17.3 | 112
20 | B6 | 16.2 | 
21 | B7 | 11 | 
22 | B8 | 36.9 | 89.7
23 | B9 | 47.6 | 98
24 | B10 | 27 | 93
25 | B11 | 367 | 
26 | B12 | 21.6 | 
27 | B13 | 27 | 87.8
28 | B14 | 35.5 | 

biological target: human glucagon receptor (human, UniProt P47871 26-477); experiment: cell-based or functional assay

Row | Binder | cAMP EC50 (1.0% HSA) [nM]
29 | B1 | > 9950
30 | B2 | > 9950
31 | B3 | > 9950
32 | B4 | > 9950
33 | B5 | > 9950
34 | B6 | > 9950
35 | B7 | > 9950
36 | B8 | > 9950
37 | B9 | > 9950
38 | B10 | > 9950
39 | B11 | > 9950
40 | B12 | > 9950
41 | B13 | > 9950
42 | B14 | > 9950
